{"source": "patent US12448423", "about": "(Xencor, dated 2025)", "data": [{"biological_target": "T1, HIS-tagged human NKG2D (human, UniProt P26718 73-216, limits assumed)", "T1 construct": "Captured on HIS1K biosensors; not shown: HIS tag", "T1 sequence (looked up)": "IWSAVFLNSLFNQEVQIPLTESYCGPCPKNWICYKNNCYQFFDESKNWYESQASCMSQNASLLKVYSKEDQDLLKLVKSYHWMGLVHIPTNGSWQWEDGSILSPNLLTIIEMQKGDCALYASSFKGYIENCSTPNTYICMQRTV", "assay": "Octet (BLI): His-tagged human NKG2D captured on HIS1K biosensors, dipped into 100 nM bivalent mAb", "units": {"Kd": "nM", "koff": "s⁻¹", "kon": "M⁻¹ s⁻¹"}, "values": [{"binder": "XENP27591 (antibody, human IgG1, kappa, V domains shown, bivalent anti-NKG2D mAb, IgG1 with ablation variants; also called 11B2D10[NKG2D]_H0L0_IgG1_PVA_/S267K) VH: QVQLQQSGPELVRPGASVKLSCKASGYTFTSYWMNWVQQRPEQGLEWIGRIDPYDSETHYNQKFKDKAILTVDKSASTAYMQLSSLTSEDSAVYYCAKMGDYSFDYWGQGTTVTVSS VL: DIQLTQSPASLSASVGETVTITCRASGNIHNYLAWYQQKQGKSPQVLVYNAKTLADGVPSRFSGSGSGTQYSLKINSLQPEDFGSYYCQHFWSTTWTFGGGTKLEIKR", "Kd": 0.547, "koff": 0.000792, "kon": "1.45e+06"}, {"binder": "XENP27592 (antibody, human IgG1, kappa, V domains shown, bivalent anti-NKG2D mAb, IgG1 with ablation variants; also called 6E5A7[NKG2D]_H0L0_IgG1_PVA_/S267K) VH: QVQLQQSGPGLVQPSQSLSITCTVSGFSLTIYGVHWVRQSPGKGLEWLGVIWSGGSTDYNAAFISRLSISKDNSKRQVFFKMSSLQANDTAIYYCSRKSHDGYYGVMDYWGQGTTVTVSS VL: DIQLTQSPAILSVSPGERVSFSCRASQSIGTSIHWYQQRTNGSPRLLIKYASESISGIPSRFSGSGSGTDFTLSINGVESEDIADYYCQQSNTWPLTFGAGTKLEIKR", "Kd": "≤ 0.001", "koff": "≤ 1e-07", "kon": 489000}, {"binder": "XENP27596 (antibody, human IgG1, kappa, V domains shown, bivalent anti-NKG2D mAb, IgG1 with ablation variants; also called mAb D[NKG2D]_H1L1_IgG1_PVA_/S267K) VH: QVQLVQSGAEVKKPGASVKVSCKASGYTFTNYWMHWVRQAPGQGLEWMGEIDPSDIYTNYAQKFQGRVTMTRDTSTSTVYMELSSLRSEDTAVYYCARGIYDGYYVYGMDYWGQGTTVTVSS VL: YIQMTQSPSSLSASVGDRVTITCRSSQDISNYLNWYQQKPGKAPKLLIYYTSRLHSGVPSRFSGSGSGTDFTFTISSLQPEDIATYYCQQGKTLPRTFGGGTKVEIKR", "Kd": "≤ 0.001", "koff": "≤ 1e-07", "kon": 698000}, {"binder": "XENP27593 (antibody, human IgG1, kappa, V domains shown, bivalent anti-NKG2D mAb, IgG1 with ablation variants; also called 6H7E7[NKG2D]_H0L0_IgG1_PVA_/S267K) VH: QVQLQESGPGLVAPSQSLSITCTVSGFSLTSYGVHWIRQPPGKGLEWLGVIWAGGSTNYNSALMSRLSISKDNSKSQVFLKMNSLQIDDTAMYYCARGGYEGAAWFGYWGQGTTVTVSS VL: DIQLTQSPAILSASPGEKVTMTCRASSSVSYMHWYQQKPGSSPKPWIYATSNLASGVPARFSGSGSGTSYSLTISRVEAEDAATYYCQQWNSNPLTFGAGTKLEIKR", "Kd": "≤ 0.001", "koff": "≤ 1e-07", "kon": 231000}, {"binder": "XENP27598 (antibody, human IgG1, kappa, V domains shown, humanized bivalent anti-NKG2D mAb, IgG1 with ablation variants; also called mAb B[NKG2D]_H1L1_IgG1_PVA_/S267K) VH: QVQLVQSGAEVKKPGASVKVSCKASGYTFTSYWMNWVRQAPGQGLEWMGRIDPYDSETHYNQKFQGRVTMTVDKSTSTAYMELSSLRSEDTAVYYCAKMGDYSFDYWGQGTLVTVSS VL: DIQLTQSPSSLSASVGDRVTITCRASGNIHNYLAWYQQKPGKSPKVLVYNAKTLADGVPSRFSGSGSGTDYTLTISSLQPEDFATYYCQHFWSTTWTFGGGTKVEIKR", "Kd": 0.679, "koff": 0.000746, "kon": "1.1e+06"}, {"binder": "XENP27601 (antibody, human IgG1, kappa, V domains shown, humanized bivalent anti-NKG2D mAb, IgG1 with ablation variants; also called mAb B[NKG2D]_H2L1_IgG1_PVA_/S267K) VH: EVQLVQSGAEVKKPGESLRISCKASGYTFTSYWMNWVRQMPGKGLEWMGRIDPYDSETHYNPSFQGHVTISVDKSISTAYLQWSSLKASDTAMYYCAKMGDYSFDYWGQGTLVTVSS VL: DIQLTQSPSSLSASVGDRVTITCRASGNIHNYLAWYQQKPGKSPKVLVYNAKTLADGVPSRFSGSGSGTDYTLTISSLQPEDFATYYCQHFWSTTWTFGGGTKVEIKR", "Kd": 0.894, "koff": 0.0011, "kon": "1.23e+06"}, {"binder": "XENP27599 (antibody, human IgG1, kappa, V domains shown, humanized bivalent anti-NKG2D mAb, IgG1 with ablation variants; also called mAb B[NKG2D]_H1_L1.1_IgG1_PVA_/S267K) VH: QVQLVQSGAEVKKPGASVKVSCKASGYTFTSYWMNWVRQAPGQGLEWMGRIDPYDSETHYNQKFQGRVTMTVDKSTSTAYMELSSLRSEDTAVYYCAKMGDYSFDYWGQGTLVTVSS VL: DIQLTQSPSSLSASVGDRVTITCRASGNIHNYLAWYQQKPGKSPKVLVYNAKTLADGVPSRFSGSGSGTDYTLTISSLQPEDFATYYCQHFWSTPWTFGGGTKVEIKR", "Kd": 3.5, "koff": 0.00169, "kon": 482000}, {"binder": "XENP27600 (antibody, human IgG1, kappa, V domains shown, humanized bivalent anti-NKG2D mAb, IgG1 with ablation variants; also called mAb B[NKG2D]_H1L2_IgG1_PVA_/S267K) VH: QVQLVQSGAEVKKPGASVKVSCKASGYTFTSYWMNWVRQAPGQGLEWMGRIDPYDSETHYNQKFQGRVTMTVDKSTSTAYMELSSLRSEDTAVYYCAKMGDYSFDYWGQGTLVTVSS VL: DIQLTQSPDSLAVSLGERATINCKASGNIHNYLAWYQQKPGQSPKVLVYNAKTLADGVPSRFSGSGSGTDYTLTISSLQAEDVAVYYCQHFWSTTWTFGGGTKVEIKR", "Kd": 0.595, "koff": 0.000666, "kon": "1.12e+06"}, {"binder": "XENP27597 (antibody, human IgG1, lambda, V domains shown, bivalent anti-NKG2D mAb, IgG1 with ablation variants; also called KYK-1.0[NKG2D]_H1L1_IgG1_PVA_/S267K) VH: EVQLVESGGGVVQPGGSLRLSCAASGFTFSSYGMHWVRQAPGKGLEWVAFIRYDGSNKYYADSVKGRFTISRDNSKNTKYLQMNSLRAEDTAVYYCAKDRFGYYLDYWGQGTLVTVSS VL: QPVLTQPSSVSVAPGETARIPCGGDDIETKSVHWYQQKPGQAPVLVIYDDDDRPSGIPERFFGSNSGNTATLSISRVEAGDEADYYCQVWDDNNDEWVFGGGTQLTVLG", "Kd": 0.613, "koff": 0.00113, "kon": "1.85e+06"}, {"binder": "XENP27594 (antibody, V domains shown, bivalent anti-NKG2D mAb, IgG1 with ablation variants; also called mAb E[NKG2D]_H1L1_IgG1_PVA_/S267K) VH: EVQLVESGGGLVKPGGSLRLSCAASGFTFSSYSMNWVRQAPGKGLEWVSSITSSSSYIYYADSVKGRFTISRDNAKNSLYLQMNSLRAEDTAVYYCARDRRYFDWFPLDYRGQGTLVTVSS VL: DIQMTQSPSSLSASVGDRVTITCRASQGISSWLAWYQQKPEKAPKSLIYAASSLQSGVPSRFSGSGSGTDFTLTISSLQPEDFATYYCQQYNGYPYTFGQGTKLEIKR", "Kd": 0.343, "koff": 0.000387, "kon": "1.13e+06"}, {"binder": "XENP27614 (antibody, human IgG1, kappa, V domains shown, humanized bivalent anti-NKG2D mAb, IgG1 with ablation variants; also called mAb A[NKG2D]_H2L2_IgG1_PVA_/S267K) VH: QVQLQESGPGLVKPSETLSLTCTVSGFSLTSYGVHWIRQPPGKGLEWIGVIWAGGSTNYNPSLKSRVTISKDNSKSQVSLKLSSVTAADTAVYYCARGGYEGAAWFGYWGQGTLVTVSS VL: DIQLTQSPATLSLSPGERATLSCRASSSVSYMHWYQQKPGQSPRPLIYATSNLASGVPARFSGSGSGTDYTLTISSLEPEDFAVYYCQQWNSNPLTFGAGTKVEIKR", "Kd": "≤ 0.001", "koff": "≤ 1e-07", "kon": 200000}, {"binder": "XENP27612 (antibody, human IgG1, kappa, V domains shown, humanized bivalent anti-NKG2D mAb, IgG1 with ablation variants; also called mAb A[NKG2D]_H1L2_IgG1_PVA_/S267K) VH: QVQLVQSGAEVKKPGASVKVSCKVSGFSLTSYGVHWIRQAPGQGLEWMGVIWAGGSTNYNSKFQGRVTMTKDNSKSTVYMELSSLRSEDTAVYYCARGGYEGAAWFGYWGQGTLVTVSS VL: DIQLTQSPATLSLSPGERATLSCRASSSVSYMHWYQQKPGQSPRPLIYATSNLASGVPARFSGSGSGTDYTLTISSLEPEDFAVYYCQQWNSNPLTFGAGTKVEIKR", "Kd": "≤ 0.001", "koff": "≤ 1e-07", "kon": 224000}, {"binder": "XENP27611 (antibody, human IgG1, kappa, V domains shown, humanized bivalent anti-NKG2D mAb, IgG1 with ablation variants; also called mAb A[NKG2D]_H1L1_IgG1_PVA_/S267K) VH: QVQLVQSGAEVKKPGASVKVSCKVSGFSLTSYGVHWIRQAPGQGLEWMGVIWAGGSTNYNSKFQGRVTMTKDNSKSTVYMELSSLRSEDTAVYYCARGGYEGAAWFGYWGQGTLVTVSS VL: DIQLTQSPSSLSASVGDRVTITCRASSSVSYMHWYQQKPGKSPKPLIYATSNLASGVPARFSGSGSGTDYTLTISSLQPEDFATYYCQQWNSNPLTFGAGTKVEIKR", "Kd": "≤ 0.001", "koff": "≤ 1e-07", "kon": 228000}, {"binder": "XENP27613 (antibody, human IgG1, kappa, V domains shown, humanized bivalent anti-NKG2D mAb, IgG1 with ablation variants; also called mAb A[NKG2D]_H2L1_IgG1_PVA_/S267K) VH: QVQLQESGPGLVKPSETLSLTCTVSGFSLTSYGVHWIRQPPGKGLEWIGVIWAGGSTNYNPSLKSRVTISKDNSKSQVSLKLSSVTAADTAVYYCARGGYEGAAWFGYWGQGTLVTVSS VL: DIQLTQSPSSLSASVGDRVTITCRASSSVSYMHWYQQKPGKSPKPLIYATSNLASGVPARFSGSGSGTDYTLTISSLQPEDFATYYCQQWNSNPLTFGAGTKVEIKR", "Kd": "≤ 0.001", "koff": "≤ 1e-07", "kon": 254000}]}]}
